What was measured:
[1] = target: T1, B4-GC protein (globular domain and Cys-rich domain of human EphB4, C-terminally 6xHis tagged) (human, UniProt P54760 16-327); assay: Ephrin B2-AP on B4 proteins immobilized on Ni2+-resin or on nitrocellulose membrane
T1 construct: Range is numbered on mature EphB4
T1 sequence: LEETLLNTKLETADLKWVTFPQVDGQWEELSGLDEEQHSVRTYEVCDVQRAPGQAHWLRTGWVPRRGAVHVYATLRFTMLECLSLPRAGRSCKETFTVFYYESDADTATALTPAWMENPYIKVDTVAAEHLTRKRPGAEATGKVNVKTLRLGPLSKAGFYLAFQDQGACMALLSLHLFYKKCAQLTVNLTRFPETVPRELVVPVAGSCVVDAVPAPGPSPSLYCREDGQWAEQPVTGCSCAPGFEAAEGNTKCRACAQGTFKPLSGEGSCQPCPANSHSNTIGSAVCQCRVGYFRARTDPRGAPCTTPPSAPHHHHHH
Procedure: (§1) To confirm ability of the purified recombinant proteins to bind Ephrin B2, they were tested in an in vitro binding assay. As expected, GC, GCF1 and GCF2, but not CF2 are binding the cognate ligand Ephrin B2 as confirmed by interaction between Ephrin B2-alkaline phosphatase (Ephrin B2-AP) fusion protein with the B4 proteins immobilized on Ni^2+-resin or on nitrocellulose membrane (FIG. 17).
(§2) To test ligand binding properties of the proteins, 10 µl of Ni-NTA-Agarose (Qiagen) were incubated in microcentrifuge tubes with 10-500 ng sample of a B4-ECD protein diluted in 0.5 ml of binding buffer BB (20 mM Tris-HCl, 0.15 M NaCl, 0.1% bovine serum albumin, pH 8). After incubation for 30 min on shaking platform, Ni-NTA beads were washed twice with 1.4 ml of BB, followed by addition of B2-AP fusion protein at concentration of 50 nM. Binding was performed for 30 min on a shaking platform. Tubes were centrifuged and washed once with 1.4 ml of BB. Amount of precipitated AP was measured colorimetrically at 420 nm after application of p-nitrophenyl phosphate (PNPP) and incubation for 5-30 min.

[2] = target: T2, B4-GCF1 protein (globular, Cys-rich and first FNIII domain of human EphB4, C-terminally 6xHis tagged) (human, UniProt P54760 16-427); assay: as above
T2 construct: Range is numbered on mature EphB4
T2 sequence: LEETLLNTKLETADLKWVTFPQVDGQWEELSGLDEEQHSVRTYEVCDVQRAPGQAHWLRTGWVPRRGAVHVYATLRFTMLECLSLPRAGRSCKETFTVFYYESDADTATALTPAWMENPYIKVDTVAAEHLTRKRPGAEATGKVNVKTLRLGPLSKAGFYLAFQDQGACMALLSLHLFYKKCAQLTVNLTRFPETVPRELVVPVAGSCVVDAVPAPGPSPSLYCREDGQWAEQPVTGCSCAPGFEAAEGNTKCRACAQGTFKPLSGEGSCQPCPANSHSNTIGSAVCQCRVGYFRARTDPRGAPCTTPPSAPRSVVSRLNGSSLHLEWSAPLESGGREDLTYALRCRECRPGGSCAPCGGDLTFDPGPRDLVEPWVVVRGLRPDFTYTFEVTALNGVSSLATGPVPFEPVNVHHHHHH
Procedure: as §1, §2

[3] = target: T3, B4-GCF2 protein (complete extracellular part of human EphB4, C-terminally 6xHis tagged) (human, UniProt P54760 16-537); assay: as above
T3 construct: Range 1-522 is numbered on mature EphB4 (after leader removal)
T3 sequence: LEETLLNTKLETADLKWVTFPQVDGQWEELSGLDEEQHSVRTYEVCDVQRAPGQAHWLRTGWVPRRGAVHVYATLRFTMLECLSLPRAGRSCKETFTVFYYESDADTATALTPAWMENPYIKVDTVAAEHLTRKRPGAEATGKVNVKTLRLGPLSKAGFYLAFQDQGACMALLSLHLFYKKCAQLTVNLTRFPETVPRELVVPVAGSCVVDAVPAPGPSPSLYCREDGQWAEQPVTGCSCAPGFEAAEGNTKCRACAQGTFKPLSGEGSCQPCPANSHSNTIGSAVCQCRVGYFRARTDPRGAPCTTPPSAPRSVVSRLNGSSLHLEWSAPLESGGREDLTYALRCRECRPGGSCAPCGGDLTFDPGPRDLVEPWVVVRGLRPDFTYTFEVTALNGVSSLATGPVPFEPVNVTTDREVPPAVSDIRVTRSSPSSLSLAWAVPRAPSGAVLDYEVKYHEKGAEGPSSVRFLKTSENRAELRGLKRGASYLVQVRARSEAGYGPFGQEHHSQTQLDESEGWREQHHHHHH
Procedure: as §1, §2

[4] = target: T4, B4ECv3 protein (soluble extracellular domain of human EphB4 with V5 epitope tag and 6xHis tag on its … (human, UniProt P54760 16-537)); assay: B4ECv3 on Ni-NTA-agarose, B2-AP at 50 nM, PNPP colour
T4 construct: also called EphB4ECv3; hB4ECv3
T4 sequence: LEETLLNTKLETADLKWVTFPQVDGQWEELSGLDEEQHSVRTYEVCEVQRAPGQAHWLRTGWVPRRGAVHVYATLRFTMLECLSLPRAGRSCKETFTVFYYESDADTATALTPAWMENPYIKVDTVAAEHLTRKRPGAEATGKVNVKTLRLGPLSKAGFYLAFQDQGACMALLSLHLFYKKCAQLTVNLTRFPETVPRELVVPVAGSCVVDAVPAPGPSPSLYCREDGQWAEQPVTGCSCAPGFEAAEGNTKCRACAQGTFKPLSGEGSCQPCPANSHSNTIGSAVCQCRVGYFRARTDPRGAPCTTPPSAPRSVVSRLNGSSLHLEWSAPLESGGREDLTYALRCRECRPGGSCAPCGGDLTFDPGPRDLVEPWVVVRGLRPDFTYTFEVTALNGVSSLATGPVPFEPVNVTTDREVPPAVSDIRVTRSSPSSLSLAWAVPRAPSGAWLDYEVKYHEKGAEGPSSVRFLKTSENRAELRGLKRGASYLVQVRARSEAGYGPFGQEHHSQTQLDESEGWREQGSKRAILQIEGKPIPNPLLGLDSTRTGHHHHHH
Procedure: 10 µl of Ni-NTA-Agarose were incubated in microcentrifuge tubes with 50 µl of indicated amount of B4ECv3 diluted in binding buffer BB (20 mM Tris-HCl, 0.15 M NaCl, 0.1% bovine serum albumin pH 8) After incubation for 30 min on shaking platform, Ni-NTA beads were washed twice with 1.4 ml of BB, followed by application of 50 µl of B2-AP in the final concentration of 50 nM. Binding was performed for 30 min on shaking platform, and then tubes were centrifuged and washed one time with 1.4 ml of BB. Amount of precipitated AP was measured […] after application of PNPP.

[5] = target: T5, B4ECv3NT protein (soluble extracellular domain of human EphB4 without epitope or purification tags) (human, UniProt P54760 16-537); assay: biochemical assays with B2EC-AP reagent
T5 construct: also called EphB4ECnt; B4EC-NT
T5 sequence: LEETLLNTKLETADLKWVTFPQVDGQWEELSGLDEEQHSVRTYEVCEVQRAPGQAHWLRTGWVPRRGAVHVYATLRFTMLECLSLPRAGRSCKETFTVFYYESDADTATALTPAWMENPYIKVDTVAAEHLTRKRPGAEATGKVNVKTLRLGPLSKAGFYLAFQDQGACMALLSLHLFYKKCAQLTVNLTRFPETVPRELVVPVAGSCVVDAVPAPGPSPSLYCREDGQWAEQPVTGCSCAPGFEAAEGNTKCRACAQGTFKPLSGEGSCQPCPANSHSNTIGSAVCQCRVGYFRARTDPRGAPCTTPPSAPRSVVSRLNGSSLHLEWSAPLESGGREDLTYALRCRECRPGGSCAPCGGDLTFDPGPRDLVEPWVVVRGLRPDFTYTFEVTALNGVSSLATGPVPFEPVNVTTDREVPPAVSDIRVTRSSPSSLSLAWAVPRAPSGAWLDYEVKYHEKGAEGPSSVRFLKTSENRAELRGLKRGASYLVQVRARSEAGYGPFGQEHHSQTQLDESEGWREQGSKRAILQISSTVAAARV

[6] = target: T6, Mouse EphB4/Fc (R & D Systems) (mouse, UniProt P54761 16-539); assay: immunofluorescence on frozen KS sections, FITC-labeled anti-human Fc antibody
T6 construct: Bought; also called EphB4/Fc fusion protein; not shown: Fc; detected with anti-human Fc / anti-human IgG-FITC
T6 sequence (looked up): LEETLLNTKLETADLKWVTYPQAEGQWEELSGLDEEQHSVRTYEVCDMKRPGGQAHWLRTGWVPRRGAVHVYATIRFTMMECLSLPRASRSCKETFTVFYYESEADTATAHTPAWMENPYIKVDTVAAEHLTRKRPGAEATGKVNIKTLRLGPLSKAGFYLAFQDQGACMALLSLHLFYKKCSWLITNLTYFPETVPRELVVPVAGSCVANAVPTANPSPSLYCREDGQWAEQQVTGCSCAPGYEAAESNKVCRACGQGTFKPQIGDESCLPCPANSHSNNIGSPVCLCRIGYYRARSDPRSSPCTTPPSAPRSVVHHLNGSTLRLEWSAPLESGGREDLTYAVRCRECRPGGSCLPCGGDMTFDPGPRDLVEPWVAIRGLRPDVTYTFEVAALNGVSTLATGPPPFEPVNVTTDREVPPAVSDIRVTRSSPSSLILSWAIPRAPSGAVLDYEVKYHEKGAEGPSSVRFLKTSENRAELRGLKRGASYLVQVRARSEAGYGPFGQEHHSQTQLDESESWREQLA
From the text: (A) In situ hybridization with antisense probes for ephrin B2 and EphB4 with corresponding H&E stained section to show tumor architecture. Dark blue color in the ISH indicates positive reaction for ephrin B2. No signal for EphB4 was detected in the Kaposi's sarcoma biopsy. For contrast, ISH signal for EphB4 is strong in squamous cell carcinoma tumor cells. Ephrin B2 was also detected in KS using EphB4-AP fusion protein (bottom left). (B) Detection of ephrin B2 with EphB4/Fc fusion protein. Adjacent sections were stained with H&E (left) to show tumor architecture, black rectangle indicates the area shown in the EphB4/Fc treated section (middle) detected with FITC-labeled anti-human Fc antibody as described in the methods section. As a control an adjacent section was treated with human Fc fragment (right). Specific signal arising from EphB4/Fc binding to the section is seen only in areas of tumor cells. (C) Co-expression of ephrin B2 and the HHV8 latency protein LANA1. […] Coexpression is seen as yellow color.
Immunofluorescence detection of EphrinB2 with EPHB4-Fc was done as follows. Frozen sections fixed in 4% paraformaldehyde and blocked with 20% FBS were incubated with 5 μg/ml EphB4/Fc (R&D Systems) for 1 h at RT. Sections were then incubated with 10 μg/ml rabbit anti-human IgG-FITC in PBS (Jackson ImmunoResearch Laboratories West Grove, Pa.) at RT for 1 hour. […]

Measured: binding result

B1: Ephrin B2-alkaline phosphatase (Ephrin B2-AP) fusion protein (protein fusion of Ephrin B2 ectodomain with placental alkaline phosphatase) (ligand)
chain: IVLEPIYWNSSNSKFLPGQGLVLYPQIGDKLDIICPKVDSKTVGQYEYYKVYMVDKDQADRCTIKKENTPLLNCAKPDQDIKFTIKFQEFSPNLWGLEFQKNKDYYIISTSNGSLEGLDNQEGGVCQTRAMKILMKVGQDASSAGSTRNKDPTRRPELEAGTNGRSSTTSPFVKPNPGSSTDGNSAGHSGNNILGSEVALFA
notes: also called B2EC-AP; B2ECAP; not shown: placental alkaline phosphatase from the pAPTag2 vector (GenHunter)
not listed: [6]
binds: all other assays above

B2: ephrin B2 on tumor cells of human Kaposi's sarcoma biopsy sections (ligand)
chain: IVLEPIYWNSSNSKFLPGQGLVLYPQIGDKLDIICPKVDSKTVGQYEYYKVYMVDKDQADRCTIKKENTPLLNCAKPDQDIKFTIKFQEFSPNLWGLEFQKNKDYYIISTSNGSLEGLDNQEGGVCQTRAMKILMKVGQDASSAGSTRNKDPTRRPELEAGTNGRSSTTSPFVKPNPGSSTDGNSAGHSGNNILGSEVALFAGIASGCIIFIVIIITLVVLLLKYRRRHRKHSPQHTTTLSLSTLATPKRSGNNNGSEPSDIIIPLRTADSVFCPHYEKVSGDYGHPVYIVQEMPPQSPANIYYKV
binds: [6]

Reference: patent publication US7585967 (VASGENE THERAPEUTICS, dated 2009)
